Laboratory results from publication PMC10374146.

Molecular target: Irr (iron response regulator) (Brucella melitensis M5-90, UniProt Q842L5 1-145)
Assay: EMSA
Settings: protein: ivt; tags: Halo (pDAP-Halo-Kan vector); chain copies: 2; label: biotin; blunt

B1: BME_RS10660 (zntA) (dsDNA)
DNA 1: TCAGGCAAGCTTCATGCCCATATCC
DNA 2: GGATATGGGCATGAAGCTTGCCTGA
**Q.** Does B1 bind?
**A.** binds

B2: BME_RS13655 (2Fe-2S binding protein) (dsDNA)
DNA 1: CGGTTTATTTTGTTTTTTTAGTTTC
DNA 2: GAAACTAAAAAAACAAAATAAACCG
**Q.** Does B2 bind?
**A.** binds

B3: BME_RS01725 (membrane protein) (dsDNA)
DNA 1: GCATATTTTAGAATTATTCTAAATT
DNA 2: AATTTAGAATAATTCTAAAATATGC
**Q.** Does B3 bind?
**A.** binds

B4: BME_RS09560 (hypothetical protein) (dsDNA)
DNA 1: ATGTTATAGAGCGATTCTGGTT
DNA 2: AACCAGAATCGCTCTATAACAT
**Q.** Does B4 bind?
**A.** binds

B5: BME_RS14525 (ftrA) (dsDNA)
DNA 1: CTTAATGAAAAATCTATTCAG
DNA 2: CTGAATAGATTTTTCATTAAG
**Q.** Does B5 bind?
**A.** binds
